Data taken from US20230333112 (published 2023).

Biological target: T1, human NKp30 (BKM0179) (human, UniProt O14931)
T1 chain: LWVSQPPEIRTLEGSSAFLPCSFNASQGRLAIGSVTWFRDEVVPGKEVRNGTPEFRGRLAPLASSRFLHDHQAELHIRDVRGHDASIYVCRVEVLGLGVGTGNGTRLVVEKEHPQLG
Assay: SPR

B1: BJM1078 (BJM0407 parental) (antibody, V domains shown)
VH: EIQLLESGGGLVQPGGSLRLSCAVSGFSITTTGYHWNWVRQAPGKGLEWVGYIYSSGSTSYNPSLKSRFTISRDTSKNTFYLQMNSLRAEDTAVYYCARGDWHYFDYWGQGTMVTVSS
VL: QSVTTQPPSVSGAPGQRVTISCSGEKLSDKYVHWYQQLPGTAPKMLIYENDRRPSGVPDRFSGSNSGNSASLAITGLQAEDEADYFCQFWDSTNSAVFGGGTQLTVL
Kd: 1.48 nM
